Measured values as given in article PMC11619453.

Biological target: ORF59HA full-length (KSHV DNA polymerase processivity factor ORF59 with an in-frame HA tag, from iSLK.BAC16-ORF59HA) (Kaposi's sarcoma-associated herpesvirus (KSHV, human herpesvirus 8), BAC16)
Sequence (F5HID2 whole entry): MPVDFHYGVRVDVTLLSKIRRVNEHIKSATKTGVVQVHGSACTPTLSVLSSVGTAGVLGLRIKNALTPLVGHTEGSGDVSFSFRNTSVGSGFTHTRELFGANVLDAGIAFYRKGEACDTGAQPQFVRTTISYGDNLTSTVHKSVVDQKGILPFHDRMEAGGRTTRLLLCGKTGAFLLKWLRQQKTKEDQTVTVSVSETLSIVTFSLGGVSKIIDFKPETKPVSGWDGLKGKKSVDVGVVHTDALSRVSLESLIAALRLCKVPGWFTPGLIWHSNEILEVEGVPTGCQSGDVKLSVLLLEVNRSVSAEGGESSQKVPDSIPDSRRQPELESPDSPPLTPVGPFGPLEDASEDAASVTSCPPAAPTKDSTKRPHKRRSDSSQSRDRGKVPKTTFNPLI

B1: ORF57 (KSHV mRNA transcript accumulation protein, MTA) (natural protein)
chain: MVQAMIDMDIMKGILEDSVSSSEFDESRDDETDAPTLEDEQLSEPAEPPADERIRGTQSAQGIPPPLGRIPKKSQGRSQLRSEIQFCSPLSRPRSPSPVNRYGKKIKFGTAGQNTRPPPEKRPRRRPRDRLQYGRTTRGGQCRAAPKRATRRPQVNCQRQDDDVRQGVSDAVKKLRLPASMIIDGESPRFDDSIIPRHHGACFNVFIPAPPSHVPEVFTDRDITALIRAGGKDDELINKKISAKKIDHLHRQMLSFVTSRHNQAYWVSCRRETAAAGGLQTLGAFVEEQMTWAQTVVRHGGWFDEKDIDIILDTAIFVCNAFVTRFRLLHLSCVFDKQSELALIKQVAYLVAMGNRLVEACNLLGEVKLNFRGGLLLAFVLTIPGMQSRRSISARGQELFRTLLEYYRPGDVMGLLNVIVMEHHSLCRNSECAAATRAAMGSAKFNKGLFFYPLS
Work on B1 yielded a viral DNA accumulation (qPCR of ORF26, 72 hpi) in 59HA-WT iSLK cells transfected with 30–100DsRed, against control cells of 5 fold.
